Results reported in publication PMC7457226 (Developmental cell, 2019).
Positions count from the first letter of the chain named. In names and notes the source's numbering stands.

B1: Rabin8C (residues 270-460) (domain or fragment)
chain: NKSTSSAMSGSHQDLSVIQPIVKDCKEADLSLYNEFRLWKDEPTMDRTCPFLDKIYQEDIFPCLTFSKSELASAVLEAVENNTLSIEPVGLQPIRFVKASAVECGGPKKCALTGQSKSCKHRIKLGDSSNYYYISPFCRYRITSVCNFFTYIRYIQQGLVKQQDVDQMFWEVMQLRKEMSLAKLGYFKEEL
B2: Rabin8 144-C (domain or fragment, human, UniProt Q96QF0-2 144-460, looked up)
chain: RLRSPSVLEVREKGYERLKEELAKAQRELKLKDEECERLSKVRDQLGQELEELTASLFEEAHKMVREANIKQATAEKQLKEAQGKIDVLQAEVAALKTLVLSSSPTSPTQEPLPGGKTPFKKGHTRNKSTSSAMSGSHQDLSVIQPIVKDCKEADLSLYNEFRLWKDEPTMDRTCPFLDKIYQEDIFPCLTFSKSELASAVLEAVENNTLSIEPVGLQPIRFVKASAVECGGPKKCALTGQSKSCKHRIKLGDSSNYYYISPFCRYRITSVCNFFTYIRYIQQGLVKQQDVDQMFWEVMQLRKEMSLAKLGYFKEEL
B3: Rabin8 144-C S147A/S149A (domain or fragment, human, UniProt Q96QF0-2 144-460, looked up)
chain: B2 chain with S4A, S6A
B4: Rabin8 144-C S147D/S149D (domain or fragment, human, UniProt Q96QF0-2 144-460, looked up)
chain: B2 chain with S4D, S6D

Key:
Rab11 (Homo sapiens) = Rab11 (Homo sapiens) (UniProt P62491); details: cited from earlier work
Chain of Rab11 (Homo sapiens) (P62491 2-213): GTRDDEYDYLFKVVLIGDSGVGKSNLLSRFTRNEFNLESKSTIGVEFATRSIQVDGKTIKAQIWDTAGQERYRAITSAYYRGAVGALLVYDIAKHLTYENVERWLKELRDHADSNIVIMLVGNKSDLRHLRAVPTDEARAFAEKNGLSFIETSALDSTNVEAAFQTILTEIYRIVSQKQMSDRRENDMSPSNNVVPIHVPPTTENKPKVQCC

WDR44 334-435 (human) = WDR44 334-435 (human) (UniProt Q5JSH3); test: ITC
Chain of WDR44 334-435 (human) (Q5JSH3 334-435): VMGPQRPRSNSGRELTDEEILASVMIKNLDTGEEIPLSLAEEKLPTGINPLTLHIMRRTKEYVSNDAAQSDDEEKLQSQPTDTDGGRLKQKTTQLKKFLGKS

[1] = biological target: Rab11Q70L 6-186-WDR44 334-435 complex (human) (UniProt P62491); test: ITC
SEC = biological target: the molecule itself; test: SEC

| Molecule | binding result (SEC) | other results |
| --- | --- | --- |
| Rabin8 (from UniProt Q96QF0) |  | Kd (Rab11 (Homo sapiens)): 40 µM |
| Rab11Q70L 6-186 (calorimetry) (from UniProt P62491 6-186) (domain or fragment) |  | Kd (WDR44 334-435 (human)): 0.54 µM |
| B1 |  | Kd [1]: 37.2 µM |
| B2 | binds |  |
| B3 | binds |  |
| B4 | binds |  |
